Results published in patent US7361341B2, “Methods of treating cancer using antibodies that immunospecifically bind to trail receptors” (Human Genome Sciences, Inc., priority 2001, dated 2008).

Experiments:
[1] = test system: human primary hepatocytes; assay: Caspase activation in human primary hepatocytes; type: cell-based; conditions: 6 hrs following treatment; T1014G03 62.5-1000 ng/ml, TRAIL 15.6-1000 ng/mL
Protocol: (§1) The effect of T1014G03 (lot AB22125-M2) in human primary hepatocytes was determined by measuring either caspase activation or cell viability. Human hepatocytes were treated with 15.6, 62.5, 250 or 1000 ng/mL of TRAIL (amino acid residues 114-281, Biomol Research Laboratories Inc, Plymouth Meeting, Pa.), 62.5, 125, 250, or 1000 ng/ml of isotype control mAb (hlgG1,CAT002) or 62.5, 125, 250, or 1000 ng/ml T1014G03. Caspase activation was determined at 6 hrs following treatment, while viability was determined at 24 hrs following treatment.
(§2) Caspase activity was measured using a fluorimetric assay utilizing the caspase substrate Rhodamine conjugated DEVD, (e.g., Homogeneous Fluorimetric Caspases Assay available from Roche Molecular Biochemicals (Indianapolis, Ind.)). Cell viability was determined using an ALAMAR Blue™ (Biosource International, Camarillo, Calif.) assay. […] In contrast to TRAIL, T1014G03 treatment was found not to effect either caspase or cell viability in human hepatocytes.

[2] = test system: human primary hepatocytes; assay: Cell viability of human primary hepatocytes (ALAMAR Blue); type: cell-based; conditions: 24 hrs following treatment; T1014G03 62.5-1000 ng/ml, TRAIL 15.6-1000 ng/mL
Protocol: as §1, §2

For “TRAIL: TRAIL (amino acid residues 114-281, Biomol Research Laboratories Inc)”, the caspase activity [1] was “induced caspase activity at the highest concentration tested” and the cell viability [2] was “reduced cell viability at all concentrations tested”.
